± gives the standard deviation.

The series in a line: protein stability index of a GFP-peptide fusion (GPS, HEK-293T) (PSI 1-6); higher = more stable.
Where [1] appears, read: treatment: DMSO, c terminus: a fixed tail appended.
The mark [2] stands for this setting: treatment: MLN4924 1 uM, 8 h, c terminus: a fixed tail appended.
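Also: 24-mer peptide tiles fused after GFP, lentivirally expressed, FACS-sorted into six equal bins by GFP/DsRed ratio, decoded by Illumina sequencing, PSI is the read-weighted mean bin number.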

Sequence VYPRPPEPREFSSRNFGVRNQGNF [ZC2HC1C] registered a protein stability index under setting [1] of 3.24 ± 0.15 and a protein stability index under setting [2] of 3.24 ± 0.29.

For WAPASEGLKPGPEDGPGKEEAPEL [SERTAD1], the protein stability index by setting is: under setting [1], 5.5 ± 0.2; under setting [2], 5.46 ± 0.41.

As to WASCLQYDFDTQYAFVGDYSGQIT [WDFY1], the protein stability index by setting is: under setting [1], 2.43 ± 0.39; under setting [2], 2.2 ± 0.21.

Turning to WEELLTMKVEAKSHLQWQESRLKR [ZSCAN9], the protein stability index under setting [1] turned out to be 3.65 ± 0.18 and the protein stability index under setting [2] worked out at 3.59 ± 0.37.

Regarding WIRICRPGSIIGPQQHFLEEKQAS [CDC14A], the protein stability index was found to be 2.18 ± 0.46 under setting [1] and 2.36 ± 0.48 under setting [2].

WMEILILGVVYRSLSFEDELVYAD [ESRRG]: the protein stability index by setting is: under setting [1], 3.77 ± 0.27; under setting [2], 2.68 ± 0.25.

With WNITKLSIEYDSEPFGKERDAAIK [CRY1], the protein stability index runs as follows: under setting [1], 2.9 ± 0.29; under setting [2], 2.9 ± 0.28.

As for WNQILDPWVYILLRKAVLKNLYKL [PTGFR], the protein stability index runs as follows: under setting [1], 2.7 ± 1.1; under setting [2], 2.03 ± 0.93.

WREFHYIQSKLGIVSLLLGTIHAL [STEAP1]: the protein stability index runs as follows: under setting [1], 2.96 ± 0.56; under setting [2], 3.15 ± 0.69.

As to WVLLFTPCSFVCWYRPMYKAFRSD [SCAMP3], the protein stability index turned out to be 2.92 ± 0.31 under setting [1] and 3 ± 0.37 under setting [2].

YDAYRTDLEELSLGPRDAGTRGRL [ARFIP2]: the protein stability index under setting [1] worked out at 4.1 ± 0.29 and the protein stability index under setting [2] was 4.35 ± 0.15.

As for YDDVRRCCSSADICPKCWTLMTMA [PRIM1], the protein stability index came out at 3.34 ± 0.17 under setting [1] and 3.4 ± 0.36 under setting [2].

For YDITKEETFSTLKNWVKELRQHGP [RAB22A], the protein stability index under setting [1] came out at 2.85 ± 0.49 and the protein stability index under setting [2] is 3.24 ± 0.16.

For YFEGAPFPHPLWLRDTYKLWVPQP [PWWP2B], the protein stability index is, setting by setting: under setting [1], 2.05 ± 0.24; under setting [2], 2.18 ± 0.3.

Regarding YGHCTAGGEGVEVELLHNTSYTRQ [SCNN1D], the protein stability index by setting is: under setting [1], 3.71 ± 0.22; under setting [2], 3.8 ± 0.25.

Sequence YGYLPEDKVLGTFEFDETSFWNSS [KLHDC2] had a protein stability index under setting [1] of 2.66 ± 0.25 and a protein stability index under setting [2] of 2.98 ± 0.34.

Consider YILDNETNFVVQVSVFIGVLIDLW [CLPTM1], for which the protein stability index came out at 2.74 ± 0.77 under setting [1] and 2.59 ± 0.7 under setting [2].

Sequence YKKGIIRKPDISQRLVYQFVHPI [SPDEF] came in with a protein stability index (treatment: DMSO, c terminus: native) of 2.43 ± 0.48 and a protein stability index (treatment: MLN4924 1 uM, 8 h, c terminus: native) of 2.63 ± 0.4.

Regarding YKPNPQIYVKLIEECTDLQKEGEF [OAS1], the protein stability index reads like this: under setting [1], 3.54 ± 0.28; under setting [2], 3.53 ± 0.19.

Turning to YLAFAASNVRGSLNVNLNSVVLRR [DUSP5], the protein stability index runs as follows: under setting [1], 2.41 ± 0.24; under setting [2], 2.69 ± 0.24.

Turning to YLATEYLETHFRDVSSTEEFLELS [GAN], the protein stability index amounted to 3.13 ± 0.29 under setting [1] and 3.2 ± 0.35 under setting [2].

Consider YLESETETTEAIDDEGWLHSGDLG [ACSBG2], for which the protein stability index by setting is: under setting [1], 5.25 ± 0.14; under setting [2], 5.497 ± 0.035.

The sequence YLIIRTLGKLIPRHQSIFKSNGFF [CDKL4] had a protein stability index under setting [1] of 2.74 ± 1.3 and a protein stability index under setting [2] of 2.72 ± 1.8.

Turning to YLRDSSPAPCADGPAGGLADLSSG [PWWP2B], the protein stability index runs as follows: under setting [1], 4.78 ± 0.2; under setting [2], 4.8 ± 0.11.

On to YNLSPEADESVLWQLFGPFGAVTN [ELAVL3], for which the protein stability index by setting is: under setting [1], 2.55 ± 0.28; under setting [2], 2.51 ± 0.091.

Consider YNPPKDDGSTYKIELEGISVMVMR [GAN], for which the protein stability index turned out to be 2.14 ± 0.28 under setting [1] and 2.24 ± 0.22 under setting [2].

For the sequence YPASTSQDSFEAAGNSTSGSRAGA [KCNA3], the protein stability index runs as follows: under setting [1], 5.21 ± 0.24; under setting [2], 5.2 ± 0.35.

Take YPDAEDPQLGLDGPGEPDVRDGFS [PSD2]: the protein stability index runs as follows: under setting [1], 5.51 ± 0.31; under setting [2], 5.46 ± 0.084.

Take YPPFWDEDQHKLYQQIKAGAYDFP [CAMK2B]: the protein stability index by setting is: under setting [1], 2.85 ± 0.35; under setting [2], 3.11 ± 0.056.

For the sequence YQELMSLKLALDMEIATYRKLLES [KRT71], the protein stability index under setting [1] was found to be 2.38 ± 0.32 and the protein stability index under setting [2] was determined as 2.16 ± 0.22.

Regarding YQSGGRLKRPVNVPFDIFTEEVKF [KCNA4], the protein stability index came to 2.42 ± 0.26 under setting [1] and 2.8 ± 0.57 under setting [2].

With YRFASAGDDGIVVVWNAQTGEKLL [WDR41], the protein stability index was determined as 2.43 ± 0.17 under setting [1] and 2.75 ± 0.1 under setting [2].

Regarding YSCPATNECEITKRRRKSCQACRF [ESRRG], the protein stability index came to 3.59 ± 0.51 under setting [1] and 4.15 ± 0.29 under setting [2].

On to YSTRYGSPKRQLQFYRNLGKSGLR [KCNAB2], for which the protein stability index turned out to be 2.59 ± 0.18 under setting [1] and 2.69 ± 0.19 under setting [2].

For YTVSATAPGYDPETVTVTVGPAEP [CPN1], the protein stability index under setting [1] came to 3.61 ± 0.13 and the protein stability index under setting [2] came to 3.83 ± 0.39.

YVQTVDFMRTDNTCVNLLLEASNY [KLHL13]: the protein stability index runs as follows: under setting [1], 2.6 ± 0.71; under setting [2], 2.6 ± 0.66.

Regarding YVRDRADLNKDKPVIPAAALAGYT [ETS1], the protein stability index runs as follows: under setting [1], 2.44 ± 0.6; under setting [2], 3.35 ± 0.78.

Consider YVRRLDFFEKPDYDYLRKLFTDLF [CSNK1G3], for which the protein stability index by setting is: under setting [1], 2.45 ± 0.52; under setting [2], 2.06 ± 0.27.
